The data set is described as follows: pH-moderated solubility (NaOH titration) of ALM-488 salts. Format: physicochemical. As to the method: A titration experiment was carried out using the ALM-488, HCl salt to determine if a nominal 40-50 mg/mL or higher solubility could be retained as pH is increased by gradual addition of NaOH. […] At solution pH values <4 the peptide remained in solution at concentrations >50 mg/mL. Above pH 4, the peptide precipitated. […] Dilution of the mixture due to base addition decreased the peptide concentration to ~47 mg/mL at pH values >7.
FIG. 8 is an overlay of the titration curves for ALM-488 hydrochloride and the ALM-488 acetate.

Consider `CC(C)[C@H](NC(=O)[C@H](Cc1ccc(O)cc1)NCCCCC(=O)[C@H](Cc1ccc(O)cc1)NC(=O)[C@@H]1CCCN1C(=O)[C@H](CCC(=O)O)NC(=O)[C@H](CCC(=O)O)NC(=O)[C@H](Cc1c[nH]c2ccccc12)NC(=O)[C@@H]1CCCN1C(=O)[C@@H](NC(=O)[C@H](CCC(N)=O)NC(=O)c1ccc2c(c1)C(=O)OC21c2ccc(O)cc2Oc2cc(O)ccc21)C(C)C)C(=O)N[C@H](C(=O)N[C@@H](CCCCN)C(=O)N[C@@H](CCCCN)C(=O)N[C@@H](CO)C(=O)N[C@@H](CO)C(=O)NCC(=O)NCC(N)=O)C(C)C` [ALM-488 acetate], for which the “initial pH of mixture” value (before NaOH, acetate mixture ~50 mg/mL) is recorded as ~ 4. In addition, the “amount of NaOH required to adjust pH to ~7” value (compared with hydrochloride salt) is on record as “lower than that for the hydrochloride salt”. The dissolution / appearance result (initial pH ~4, ~50 mg/mL) is “did not completely dissolve and formed an opaque orange dispersion”. The appearance result (pH >7, NaOH added) was “clear solution”.
